Publication PMC5014329

What was measured:
[1] = molecular target: M2 (amino acids 42–141) (Streptococcus pyogenes (group A Streptococcus), strain M2 (AP2)); assay: crystal structure
[2] = molecular target: M22 (42–120) (Streptococcus pyogenes (group A Streptococcus), strain M22 (Sir22)); assay: crystal structure

| Substance | stoichiometry N [1] | stoichiometry N [2] |
| --- | --- | --- |
| M2 (amino acids 42–141) (domain or fragment) | 2 | – |
| M22 (42–120) (domain or fragment) | – | 2 |
